Reference: paper PMC12663309 (2025)

Target: human NEK7 recombinant protein (HY-P75935, MCE) (human, UniProt Q8TDX7 1-302, RED-NHS dye label (in the MST only))
Test: MST

Chain of human NEK7 recombinant protein (HY-P75935, MCE) (Q8TDX7 whole entry, one chain of several): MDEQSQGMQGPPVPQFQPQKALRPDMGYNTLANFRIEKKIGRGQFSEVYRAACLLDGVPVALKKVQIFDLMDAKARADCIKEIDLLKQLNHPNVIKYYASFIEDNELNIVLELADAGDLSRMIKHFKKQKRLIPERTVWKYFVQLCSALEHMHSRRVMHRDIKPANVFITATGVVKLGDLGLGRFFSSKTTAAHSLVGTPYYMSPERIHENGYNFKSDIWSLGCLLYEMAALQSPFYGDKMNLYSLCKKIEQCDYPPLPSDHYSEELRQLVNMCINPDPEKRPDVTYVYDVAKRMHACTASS

B1: human SDHB recombinant protein (Ag29868, Proteintech) (natural protein)
chain: AQTAAATAPRIKKFAIYRWDPDKAGDKPHMQTYEVDLNKCGPMVLDALIKIKNEVDSTLTFRRSCREGICGSCAMNINGGNTLACTRRIDTNLNKVSKIYPLPHMYVIKDLVPDLSNFYAQYKSIEPYLKKKDESQEGKQQYLQSIEEREKLDGLYECILCACCSTSCPSYWWNGDKYLGPAVLMQAYRWMIDSRDDFTEERLAKLQDPFSLYRCHTIMNCTRTCPKGLNPGKAIAEIKKMMATYKEKKASV
For B1, the Kd was 19.5 µM.
